The target in assay [1] is ABCG2^Myc-TM5* (ABCG2 with TM5 replaced by TM1) (human) (UniProt Q9UNQ0). Description: cross-linking.
For assay [2], the target named is ABCG2^Myc-TM6* (ABCG2 with TM6 replaced by TM2) (human) (UniProt Q9UNQ0). Description: cross-linking.
Assay [3] deals with ABCG2^Myc-TM5*L3* (full-length ABCG2 with TM5—ECL3 replaced by TM1—ECL1) (human) (UniProt Q9UNQ0). As to the kind of experiment: cross-linking.
Assay [4] has as its target ABCG2^Myc-ECL3* (full-length ABCG2 with ECL3 replaced by ECL1) (human) (UniProt Q9UNQ0). As to the kind of experiment: cross-linking.
Assay [5] addresses ABCG2^Myc-L3*TM6* (full-length ABCG2 with ECL3—TM6 replaced by ECL1—TM2) (human) (UniProt Q9UNQ0). Description: cross-linking.
For assay [6], the target named is T1, HA-tagged full-length ABCG2 (ABCG2^HA-WT) (human, UniProt Q9UNQ0 1-655, R482G).
T1 sequence (looked up): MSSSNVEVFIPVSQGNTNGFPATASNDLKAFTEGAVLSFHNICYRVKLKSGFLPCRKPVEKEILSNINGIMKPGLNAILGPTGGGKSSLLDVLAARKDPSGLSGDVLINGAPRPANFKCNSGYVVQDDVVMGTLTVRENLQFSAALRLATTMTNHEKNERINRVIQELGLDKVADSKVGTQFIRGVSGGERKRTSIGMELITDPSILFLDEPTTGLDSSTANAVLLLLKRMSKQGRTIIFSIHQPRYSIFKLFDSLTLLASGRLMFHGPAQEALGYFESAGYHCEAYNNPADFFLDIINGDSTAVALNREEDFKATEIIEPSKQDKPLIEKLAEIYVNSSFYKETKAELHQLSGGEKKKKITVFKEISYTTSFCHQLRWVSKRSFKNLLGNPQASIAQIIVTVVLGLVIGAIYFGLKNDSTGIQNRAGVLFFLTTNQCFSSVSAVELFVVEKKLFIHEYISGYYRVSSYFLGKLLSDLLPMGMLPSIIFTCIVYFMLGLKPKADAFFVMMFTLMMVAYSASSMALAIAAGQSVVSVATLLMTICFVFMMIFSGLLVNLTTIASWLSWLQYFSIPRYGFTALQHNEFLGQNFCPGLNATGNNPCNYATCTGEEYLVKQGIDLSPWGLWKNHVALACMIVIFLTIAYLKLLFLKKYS
As to the kind of experiment: co-IP.

As for “ABCG2^Myc-TM5* (ABCG2 with TM5 replaced by TM1) (from UniProt Q9UNQ0 1-655) (natural protein)”, in assay [1], the percent of the protein cross-linked as dimer is 31%, the percent of the protein cross-linked as tetramer came out at 10% and the percent of the protein cross-linked as trimer turned out to be 32%.
As to “ABCG2^Myc-TM6* (ABCG2 with TM6 replaced by TM2) (from UniProt Q9UNQ0 1-655) (natural protein)”, in assay [2], the percent of the protein cross-linked as dimer came to 18%, the percent of the protein cross-linked as tetramer was determined as 49% and the percent of the protein cross-linked as trimer is 29%.
Consider “ABCG2^Myc-TM5*L3* (full-length ABCG2 with TM5—ECL3 replaced by TM1—ECL1) (from UniProt Q9UNQ0 1-655) (natural protein)”, for which, in assay [3], the percent of the protein cross-linked as dimer came out at 29%, the percent of the protein cross-linked as pentamer amounted to 51% and the percent of the protein cross-linked as trimer is 8%.
In assay [4], “ABCG2^Myc-ECL3* (full-length ABCG2 with ECL3 replaced by ECL1) (from UniProt Q9UNQ0 1-655) (natural protein)” registered a percent of the protein cross-linked as dimer of 26%, a percent of the protein cross-linked as pentamer of 43% and a percent of the protein cross-linked as trimer of 11%.
In assay [5], “ABCG2^Myc-L3*TM6* (full-length ABCG2 with ECL3—TM6 replaced by ECL1—TM2) (from UniProt Q9UNQ0 1-655) (natural protein)” showed a percent of the protein cross-linked as dimer of 11% and a percent of the protein cross-linked as hexamer of 89%.

B1: Myc-tagged wild-type ABCG2 (ABCG2^Myc-WT) (natural protein, human, UniProt Q9UNQ0 1-655, looked up)
chain: T1 sequence (looked up)
Consider B1, for which the “Co-IP with WT, relative to the wild-type construct” value in assay [6] came out at 100%.

Values taken from paper PMC8276268 (Biochemistry, 2012).
